Results published in the DeepSol protein solubility set.

Assay: soluble on expression in E. coli; label from the status in PepcDB or PDB records

Soluble on expression in E. coli, not soluble:
MGSDKIHHHHHHMAADVATPFQQLRINKFAAIQNGQFVASFKVPRSAGFTLIIPNADDFLTNNISIMTPDNKVLDASNFAAFGVEFSQFSPDNELTAFLATGNSWIIKFSDVIPGSYTVRGVTSSAKSHLPIRVLVKNSDIALHLVIGSPSNIPMVNHHLPISVLMVDGDLPYINGNVSFEIFKDGEALQHANIRDDGVYPDYQANDGTYSTLFMPLSAGVYDVLINISGRNKNGDKFEAQIFRSFKVLQDNVYLTGKHSEVLIDEDGDGYNDALMLEFETGGVFQEEGVYYITVNLETNDGRTLVAHQRIESPEKKFYVKFDGKYLGTLDYSGAFKFFSIVIEYNDSIIHLNQSFGSTSYYDHDSWERDDLLYLGNVTFEPIYSADGRFIEMIDVSFEVDTLPTAARFGYSATITTVGNEHVGVYGNPDIELKKGINRITFSIPAADFAKLQSNTALKISQLTMYPLIKGGNVISKRNVATSELYSCWDFRGCSTAENAIPVAVDDEVTSTGKAMYIHVAQNDYDGDLLKVSDQKKDNFGTLTQWSIQFD
MGSDKIHHHHHHMAAKPPLTLYLAAPRGFCAGVDRAIKIVEMALEKWGAPVYVRHEIVHNKFVVDGLRDKGAVFVEELEECPDDRPVIFSAHGVPKSVPAAAEARQMVYVDATCPLVSKVHIEAQRHAEAGLQMIMIGHKGHPETVGTMGQLPEGEVLLVETVEDVAQVEVRDPERLAFVTQTTLSVDDTKDIVAALQARFPAIVGPHKEDICYATTNRQEAVKEVAPKADALLVVGAPNSSNSRRLVEVGAKNGCSYAQLVQRAENIDWRALEGIQSIAITAGASAPELLVNEVIDAFRDRYEVTVELVETAVERVEFKVPRVLRTA
MGSDKIHHHHHHMADNVKANKMNSQADDDIGFGIYTDIADLPMTGCPSYIEEGIGGVCESGTATIVVFDVPFQIVPNVVITLMPWQLVFIKEISEDFRITFFKISKDMFSETLSTLWRPASGFLLYMRKHIVSIPDGELIGRFLAYCNLLVYRMKHTPQNCRQESIMQLLRVYFWDVYTVYINDPQAEKSLKFTRKDEYVYQFVRLIIEDHSPDKDVAYFAQKLGISPKRLTNLIRSISGQSAREWIVYYTILEIKSLLRESSLDIKSIAARVNFPDQTTLSRYFRHYTGVTPSQYRKNIYF
MGSDKIHHHHHHMAESKIAERAFYQPGASSIEGMPTTLQLFHNHPPIMLRPHWHAQVEVNYVMSGSVHYRMGDHDLTLNAGQMCIFWGGQPHQMDRSSDDSFYAGAHLPLVHFFRMRLPAAISSQLMDGATMVSGETDRADAENFGRWFRYVTSGDPAKAQHAVEELLLRVERMFLEPYSVISSADHGKRKEDDEGMAPSIGVVRMCDFIAANFLDDIDAADIARAASLHPKYAMNLFRKSTGMTLIKYLTLLRLSRAQAMLMTGKDNILQIAMESGFGSVSAFNKAFRQISGMSPSDFRRDMRAAAA
MGSDKIHHHHHHMAFAQLQIVSSLADAYSKDGADALILIGNFDSIDDSALAETIQQAQITDQRVGKQPLLLKADGVPGQRLVAAPTGPLNRDFDDVRQVFDAAHAAAKVAQDAGARHPVIALNNVNVNDERYQQAFLAAYLGFCQALYQPLEAREAHGEEAIEPTQNVILVGELDVEWAMAVEAGKRVARDLAGTEPERMAPPKFAEYCRQAFAHTSVKVTVIDDYQQLQHEYPLLAAVGRSSMAVERHRPCVIRLEYHGNNPERTVMFAGKGIVYDTGGADLKTGGHMAGMSRDKGGAAGVAGFLKTVSELQPEHLNVVAEIGAVRNSIGSDAFVADEIITGHSGKRVRIGNTDAEGRLIMADLLSHLREEAAKSDGEHELYTVATLTGHAALSKGPYSALVPNGHARRQNLAQALFNAGETYGDPTEISWSRREDFDFVKGRTLCDDLLSSNNGPSAATPRGHQFPMAFLTGVSGLDNHGIDSEHPISYIHIDIAGSGVEGGDWQHGKPTAAPVTCLAGHYLKK
MGSDKIHHHHHHMAFTNNVMIVRHGLLAKLVKLWKENRLLEEIDRLPIELSPRKSKVRGRCCVHKERAVWKYKTLPLLGFDMQDEEDELTPLSEYAKRALFRSENKKENIMCVVDEACSSCVSVNYEITNLCRGCVARSCYMNCPKDAIRFKKNGQAEIDHETCISCGKCHQSCPYHAIVYIPIPCEEVCPVKAISKDKYGVEHIDESKCIYCGKCVNACPFGAIFEISQVFDILQRLRNKEQMVAIVAPSILAQFSAPKEKVYGAIKSLGFEEVVEVAQGAMETTRHEAEELIEKLKEGQPFMTTSCCPSYVQLAEKHIPDLKKYISSTGSPMYYTARIVKEKYPDAKIVFVGPCVAKRKEVKLDPCVDFTLTFEEVGSVLEGLGIKIEEAQPFSVLFNAVREAHGFAQSGGVINAVKVYLKDENVNAVQVANLTKKNVALLRAYAKTGKAPAQFIEVMACEGGCVTGPCTHADKTAGQKQLIKELTKF
MGSDKIHHHHHHMAGEDRDMETETETVCPGNTAGRFAAGEDPAKRDQILAGAWRVFKLKGFDAASMNDITREAGVSKGTIYVYFSNKEDLFAALVDHHRQEFATSMRNILAGTEEVRKGLEQFGKAFANKMICSDMIPAMRSVIGVIDRMPKLAQRFFIAAPNNVRTVLQDFIEHHIALGHLKVDDVELAARQYIELSTGTFFKLRLFGEIDGPVPEEELDRVIASAIKVFMAAYGTDKV
MGSDKIHHHHHHMAGLERGELRQALLAEVKKVCAGQGPEAVSISKIGKSLGVSSGAPFRLFPSREHIFAALIESEMERLDATFERIWSCKTTDPVLRLTDICQAYVDHARTEPAMFRLAFSVSAKAMGAVKLQKIGEDVYEKVQRAVAACVPRHTTTDQVELKSYLLWSTIHGHVMLCMTGQMDDQSIDLPDEIVVASAVQGILKAG
MGSDKIHHHHHHMAGTHLFHGCQAAPLLPESTPFYCTRTIFFKPAFYCVEGSGVKTNPMKINAGTPDSVNQQVIVIGAGVIGLANAVTLARRGFKVTVIDKEGVAAGASFGNAGHFATEQVFPLADPSLLPKLPKMLLDPLGPFRIRPAYFHRALPWFVRFIVNMMPARRQHNGNAIKALNARSMAATKELLTFCGRADLLVENGSLLVFETQDPRVMEQELALYNDAGIAVRLLSGDEARALEPDLSDAISGALWFTEVGHTPNPRAICEALADTLKALGGRIEIDSVCSLQGGNTPSVTTETGKVTKADKLLLCAGAWSRPLALKLGHRVPLETERGYHLMMPQHSGLKRPVASYERKFIITPMEDGTRLAGTVEFGGLNAPMSNARADCLLPHARVLLPKVFATARVSEGKRWMGFRPSLPDSLPVLGESQTPGVYFAFGHQHLGLTWAASSAELLGQLICGETPSIDLSPYCVKRFD
MGSDKIHHHHHHMAGVTKLTIAGFKSIRELRDFELRNLNVLIGANGAGKSNFIGFFKLLAEMYERRLQLFVQQQGGSDTLLHFSRKLTDKIEGELNFGTDYDHYRFELVVTNDNRLIFTNEQYWLHSRGSRPGEVGLLGGNKDESDLKKLAAQQKSPLIDDILNSTRVYHFHDTGEKAKVKQPHALNDTLRLKVDGANLAAYLRMLKTEHAESYRQIVDTIRLVAPFFDDFVFRADSASKIQLEWTERGDPDTPFTAHALSDGTLRFICLGTLLLQPWELMPATILIDEPELGLHPYAINLLADLLKRASEQKQLIVSTQSVELLDRLEPEDVIVVDRKDNASTFHRLDAVQLQDWLDDYSLGDLWKQNVLGGRPA
MGSDKIHHHHHHMAHHHGMRFPTPLIPATLIKRYKRFLADCRLEDGREITAHCANPGSMMGLAEPGMRVWLEPNDDPKKKLKYGWRLVEHTNGHFTGVDTSVPNRALKAALEAHEIAEFAAYSEVQAEVKYGQNSRIDFLLTDAKLPRCYVEVKSVTLSRQPGLAEFPDSVTARGTKHLRELAAMAEAGHRAVMLYLVQRTDCDRFALAADIDPAYAAEFETAHAKGVERLVIGTTITPEGVKIGDILPS
MGSDKIHHHHHHMAIACVMTRASCGVQAPKVIVEVHLSNGLPGFSLVGLPEASVKEAKERVRSALINAGFEFPMQRITVNLAPADLPKQGGRYDLPIAIGILAASEQIPKKAIADAEFVGELALTGQVRPCVGLLPAIIAARDDGHPMFMPLDNRHEAELVGYQQCHFVADLQHLAAFIHGQGQLPKVDNQTQWITESAVDPKLCLSDVIGQYQAKQGLEIAAAGGHNLLLMGPPGTGKSMLASRIIPLLPNLSYQEAIEVAAIHSVAGLNTPSHNFLQRPFRSPHHTCSAISLVGGGSVPKPGEISLAHRGILFLDELPEFPRRVLDCLREPMETGEVVISRAAAKLTFASRFQLIAAMNPSPCGNVDKARSTPDQIQRYLSRLSGPFLDRFDLTVDVPKLPSGALSQANIQAETSISVAARVRKAREKQLERSGVLNNELSPKALKKVANLDQANLIFLEQSVQLLGLSVRSFHKIQRVACTIADLQEEAKVDRAHLAQALGYRAMDRLIARLRQQ
MGSDKIHHHHHHMAIIETRGIWLTTTDSKVLRSKQRIAEAMDLLAETGFNVVFPVVWNKAVTLYPSQTMQETFGVEIDPMSVGRDPLEEVVVEARRVGLKVIPWFEYGFASSYNLNGGVLLQKKPEWAARDFNGNLLNKNGFEWLNALDSQVQEFFLNLVLEVVKNYDVDGVQGDDRLPAFPCEGGYDEGTVSRYRQEYDRNPPQNPKDRQWLQWRADILTDFLARLYGEVKAVNPNLLVAIAPNIHDWAFQEYLQDSPTWLKRGIVDMIQPQIYRRDFGSYCAIADKLVSQQFTDATLPRLAPGILMKLGSYCISPEYLVQAIEYNRQLGIQGEVFFFYEGLRENNNTLAKVLRNGPYAKSASFPTLSDLSVSGVSNKKTSSTWQRLLKKIF
MGSDKIHHHHHHMAILNISELEQVEKFRQLQLTLRDRWKTIESFDNSEADILIIPSLSIDQRELQKIEGCEHYEERLLFSLIRLQNPRTRLIYVTSVPLHPSIIDYYLQLLPGIPFSHARNRLLLLSTYDSSLKPLSQKILERPRLLERIHQSLRLDKSFMICYNSSHWEGELSLKLGVPLYAAAPDLQIWGTKSGSRQIFKGSGVPHPDGSEKIWNHTDLAEATSDLWERQPTLKRVVVKLNEGISGEGNALLDLRPIENLAPGIGTHAQRVAAISDRFSTMRFQAKLETWDNFSGRIPELGAIAEAFVEGEIKRSPSVQGRITPTGEVEILSTHDQILGGPDGQIYLGCRFPADESYRLQLQQLGLQVGRTLAEKGTLERFGVDFIAVDKGNGEWDIQAIEINLRKGGTTHPFMTLKLLTNGRYDLSTGLFYSQQGRPKYYIATDNLQKERYQGLLPNDLMDIIAHHRLHFDSGTETGTVFHLMGCLSQFGKLGLTSIGDSPQQAQDIYNKVVKVLDEETRSENRDFSAFSDYSFPVAWDEYR
MGSDKIHHHHHHMAIRSSVLALCVATLLTGCQNLNTNTLMQSGAQAFQAATLSDAQVKALSDQSCEQMDKEAKIAPADSKYTQRLNKIADALGHDINGTPANYKVYLEKDVNAWAMANGCIRVYSGLMDMMNDNEVEGVLGHEMGHVALGHTRKAMQVAYAATAARTAIASAGGVAASLSQSQLADLGEKLVNSQFSQSQESQADDYSFDLLKKRGINREGLASSFEKLAKLDASHESSMFDSHPSSEGRAKHIRERITAEK
MGSDKIHHHHHHMAIRTCFCTGVLPVTMDDLTSGYNIAEILTLEPEFLSMLGFTYKEAEVYLRYVLDTYTEGQDRFDDVWQLIVNNYDGYRFLPEAEPLFNSTILTYFFKKFAVRKGGIPSELVDENLRTDIGWIRHLTLSLENAKEMQDALVIDDELSYNVSDLSSKFNKRKFFDKSIYPVSLFYLGMTTLRSNYRMVLPNLTMRSIYMDYYNEMNHIEGNAQRYVPTYERFTEERRFEPLVQNYFEQYLGQFPAQVFDKINENFIRCSFFELCSRYLSSCYTFAIEQNNSAGRSDFEMTGIPGTDYYKDDRLAEFKYFKAKEAERMLALSDPRPEDVAQVLAYAKDTKVKFPHYHVRSYIVYICANKGWKCWEVTP
